Where two headings read alike, the source gives them in different places.
B1: KC: inflammatory mediator, sepsis surrogate marker (protein, UniProt P12850 25-96, looked up)
Growth-regulated alpha protein: APIANELRCQCLQTMAGIHLKNIQSLKVLPSGPHCTQTEVIATLKNGREACLDPEAPLVQKIVQKMLKGVPK
B2: human SAA: human serum amyloid A, recombinant protein (Cat. No. 300-13, PeproTech) (protein)
chain: RSFFSFLGEAFDGARDMWRAYSDMREANYIGSDKYFHARGNYDAAKRGPGGAWAAEVITDARENIQRFFGHGAEDSLADQAANEWGRSGKDPNHFRPAGLPEKY
B3: human SAA1: human SAA1 (Cat. No. 300-53, PeproTech) (protein)
chain: B2 chain

Columns and labels:
HMGB1 release = HMGB1 release in vitro by inflammatory mediators (data not shown); format: cell-based
murine macrophages = test: HMGB1 release in murine macrophage cultures (Western blots); format: cell-based; settings: 1-10 μg/ml, 16 h
Experimental: (§1) FIG. 4A-4C. […] A, Amino acid sequence of human and murine SAAs (SEQ ID NOS:19-23, top to bottom). B, Western blots of human SAA and SAA1. Note that the anti-HMGB1 IgGs paradoxically cross-reacted with huSAA, but not huSAA1. […] Murine macrophages and human monocytes were stimulated with huSAA or huSAA1 for 16 h, and extracellular HMGB 1 levels were determined by Western blots.
(§2) Overall, there is a >95-98% amino acid sequence homology between members of the human or murine SAA families, and a >75% identity across human and murine families (FIG. 4A), making it seemingly difficult to distinguish between different SAA members by immunoassays. Indeed, the polyclonal antibodies raised against human SAA cross-reacted with both human SAA and SAA1 on Western blots (FIG. 4B, bottom panel). Intriguingly, our rabbit anti-HMGB1 IgGs “specifically” recognized human SAA, but not SAA1, on Western blots (FIG. 4B), implicating a possibility of selectively immunodetecting human SAA with appropriate antibodies.

Balb/C mice = format: in vivo; settings: LPS 5 mg/kg i.p. in combination with SAA 0.8 mg/kg
human monocytes = test: HMGB1 release in human monocyte cultures (Western blots); format: cell-based; settings: 1-10 μg/ml, 16 h
Experimental: as §1, §2

Molecule | induction of HMGB1 release in vitro (HMGB1 release) | induction of HMGB1 release (murine macrophages) | induction of HMGB1 release (murine macrophages; listed as HuSAA) | effect on LPS-induced animal lethality (Balb/C mice; listed as Recombinant SAA protein) | effect on LPS-induced animal lethality (Balb/C mice; listed as SAA) | induction of HMGB1 release (human monocytes) | induction of HMGB1 release (human monocytes; listed as HuSAA)
B1 | unable to induce HMGB1 release | – | – | – | – | – | –
B2 | – | effectively induced HMGB1 release | induced HMGB1 release | dramatically exacerbated | exacerbated LPS-induced animal lethality | effectively induced HMGB1 release | induced HMGB1 release
B3 | – | barely triggered HMGB1 release | – | – | – | barely triggered HMGB1 release | –

— patent publication US10183971B2, “SAA-domain-specific antibodies and peptide antagonists and use thereof to treat inflammatory diseases” (The Feinstein Institute For Medical Research, priority 2013, dated 2019)
